T1: C-terminally 3×FLAG-1×HA-tagged mouse MINION (Mus musculus) (UniProt Q2Q5T5)
T1 sequence: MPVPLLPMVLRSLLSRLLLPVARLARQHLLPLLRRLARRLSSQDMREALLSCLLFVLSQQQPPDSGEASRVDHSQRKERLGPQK

B1: Synaptopodin 2-like protein (protein, UniProt Q8BWB1 1-975, looked up)
Synaptopodin 2-like protein: MGAEEEVQVTLAGGAPWGFRLQGGTEQRKPLQIRRRSQAGRAGLRERDQLLAINGVSCTNFSHASAMTLIDASGRQLVLTVRRVTDEGSVRSPSPGELQVLSPLSPLSPEPPGAPVSQALQPTSLRSPPDSEAYYGETDSDVDGPATQEKPRRTRRRGPARPSLPGAPPDEVYLSDSPAEPAPVKTGSPSQGDSRVSSPSWEEGAALQPPPAEALLLPHGPLRPGPHLIPMVGPVPHPVAEDLTTTYTQKAKQAKLQRAESLQEKSVKEARTKCRTIASLLTAAPNPHSKGVLMFKKRRQRAKKYTLVSFGAAAGTGTEEEDGIPPTSESELDEETFSDARSLTNQSDWDSPYLDMELARAGLGTAESQNSGLGGQLSEVSGRGVQLFEQQRQRVASSSQELAQVGPAAMLNGQSLQSPPRAQSAPPEAAVLPLSPLSVPAVSPTPFFPDGGAPIPAPSIFNRSARPFTPGLQGQRSGTTSVIFRPLAPKKVNEGLGSTSPAPSPFAAPPQGPTPLPSFTTVVPSHTPVSGASSSTQRSSGPVTATSSLYIPAPSRPVTPGGAPEPPTPPSAAAMTSTASIFLSTPLRNSARPEAPGPAVPEPASVREQRISVPAARTGILQEARRRGTRKQMFRPGKEETKNSPNPELLSLVQNLDEKPRAGGAESGPEEDALSLGAEACNFMQPLGGRSYKTLPQVSPKTPPPMAPKTPPPTTPKTPPPVAPKPGSRGLLDGLVNGSTPMVGIPEPPRLQGRGGELFAKRQSRADRYVVEATSGSSLNPGLRPRSPSPTPSLPPSWKYSPNIRAPPPIAYNPLLSPFFPQAARTLPNKAQSQGPRVTPKQGIKALDFMRHQPYQLKTAMFCFDEGSSTPGPTSGPPKTARVQEIRRFSTPAPQPTAEPLAPTVLVPRAATTLDEPIWRAELASTPVPNPDHQESLRSFAAAPSSCGFQVARPRFSATRTGLQAHVWRPGAGHQ
B2: C-terminally 3×FLAG-1×HA-tagged mouse MINION (other)
chain: T1 sequence
notes: Construct of the mouse MINION CDS (84 aa isoform) expressed from the pCIGAR retroviral vector; The AP-MS text only says 'FLAG-tagged Minion'; also called FLAG-tagged Minion; 3F1H-tagged mouse MINION; not shown: C-terminal 3×FLAG-1×HA tag

Target: T1, C-terminally 3×FLAG-1×HA-tagged mouse MINION (Mus musculus)
Experiment: AP-MS, FLAG-tagged Minion bait, differentiating C2C12 myoblasts

Compared with “ATP synthase subunit beta, mitochondrial (from UniProt P56480 47-529) (enzyme)”, “ATPase family AAA domain-containing protein 1 (from UniProt Q9D5T0 1-361) (enzyme)” is lower in Sequence Coverage (%): 77% for the first, 30% for the second.

Compared with “Acetolactate synthase-like protein (from UniProt Q8BU33 1-632) (enzyme)”, “Adenylate kinase isoenzyme 4, mitochondrial (from UniProt Q9WUR9 1-223)” is higher in Sequence Coverage (%): 32% for the first, 52% for the second.

Compared with “Aldehyde dehydrogenase family 3 member B1 (from UniProt Q80VQ0 1-465) (enzyme)”, “Apolipoprotein O-like (from UniProt Q78IK4 28-265)” is higher in Sequence Coverage (%): 46% for the first, 49% for the second.

Compared with “B-cell receptor-associated protein 31 (from UniProt Q61335 2-245)”, “Calcium uniporter protein, mitochondrial (from UniProt Q3UMR5 50-350)” is higher in Sequence Coverage (%): 27% for the first, 38% for the second.

Compared with “Calsequestrin-2 (from UniProt O09161 20-415)”, “Cluster of Guanine nucleotide-binding protein G(s) subunit alpha isoforms short” is higher in Sequence Coverage (%): 24% for the first, 34% for the second.

Going from “Cluster of Myc box-dependent-interacting protein 1 (from UniProt O08539 2-588)” to “Coproporphyrinogen-III oxidase, mitochondrial (from UniProt P36552 99-443) (enzyme)”, the Sequence Coverage (%) rises from 42% to 52%.

Going from “Cytochrome b-c1 complex subunit 1, mitochondrial (from UniProt Q9CZ13 35-480)” to “Cytoplasmic dynein 1 heavy chain 1 (from UniProt Q9JHU4 2-4644)”, the Sequence Coverage (%) rises from 41% to 46%.

First: Cytoskeleton-associated protein 5 (from UniProt A2AGT5 1-2032)
Second: DnaJ homolog subfamily C member 16 (from UniProt Q80TN4 26-772)
The Sequence Coverage (%) of the first is lower: 8% for the first, 19% for the second.

Compared with Dysferlin (from UniProt Q9ESD7 1-2090), “Eukaryotic initiation factor 4A-II (from UniProt P10630 1-407)” is higher in Sequence Coverage (%): 13% for the first, 53% for the second.

Compared with “Inositol 1,4,5-trisphosphate receptor type 3 (from UniProt P70227 1-2670)”, “Isovaleryl-CoA dehydrogenase, mitochondrial (from UniProt Q9JHI5 31-424) (enzyme)” is higher in Sequence Coverage (%): 6% for the first, 49% for the second.

Compared with “Junctional sarcoplasmic reticulum protein 1 (from UniProt Q3MI48 1-332)”, “NADH dehydrogenase [ubiquinone] 1 alpha subcomplex subunit 10, mitochondrial (from UniProt Q99LC3 36-355) (enzyme)” is lower in Sequence Coverage (%): 53% for the first, 24% for the second.

Compared with “NADH dehydrogenase [ubiquinone] flavoprotein 1, mitochondrial (from UniProt Q91YT0 21-464) (enzyme)”, “NADH-ubiquinone oxidoreductase 75 kDa subunit, mitochondrial (from UniProt Q91VD9 24-727) (enzyme)” is lower in Sequence Coverage (%): 24% for the first, 20% for the second.

First: Nascent polypeptide-associated complex subunit alpha, muscle-specific form (from UniProt P70670 1-2187)
Second: Signal recognition particle 68 kDa protein (from UniProt Q8BMA6 1-625)
The Sequence Coverage (%) of the first is lower: 18% for the first, 25% for the second.

First: Sorbin and SH3 domain-containing protein 2 (from UniProt Q3UTJ2 1-1180)
Second: Syntaxin-8 (from UniProt O88983 1-236)
The Sequence Coverage (%) of the first is lower: 7% for the first, 19% for the second.

Compared with T-complex protein 1 subunit alpha, “T-complex protein 1 subunit beta (from UniProt P80314 2-535)” is higher in Sequence Coverage (%): 52% for the first, 55% for the second.

Compared with “T-complex protein 1 subunit theta (from UniProt P42932 2-548)”, “Trifunctional enzyme subunit alpha, mitochondrial (from UniProt Q8BMS1 37-763)” is higher in Sequence Coverage (%): 48% for the first, 66% for the second.

Going from “Trifunctional enzyme subunit beta, mitochondrial (from UniProt Q99JY0 35-475)” to “Tripartite motif-containing protein 72 (from UniProt Q1XH17 1-477)”, the Sequence Coverage (%) falls from 68% to 55%.

Compared with “Vacuolar protein sorting-associated protein 45 (from UniProt P97390 1-570)”, “Very long-chain specific acyl-CoA dehydrogenase, mitochondrial (from UniProt P50544 42-656) (enzyme)” is higher in Sequence Coverage (%): 15% for the first, 57% for the second.

Compared with “Voltage-dependent anion-selective channel protein 1 (from UniProt Q60932 1-296)”, B1 is lower in Sequence Coverage (%): 15% for the first, 8% for the second.

Going from “ATP synthase subunit beta, mitochondrial (from UniProt P56480 47-529) (enzyme)” to “ATPase family AAA domain-containing protein 1 (from UniProt Q9D5T0 1-361) (enzyme)”, the Unique Peptide falls from 26 to 7.

First: Acetolactate synthase-like protein (from UniProt Q8BU33 1-632) (enzyme)
Second: Adenylate kinase isoenzyme 4, mitochondrial (from UniProt Q9WUR9 1-223)
The Unique Peptide of the first is higher: 10 for the first, 6 for the second.

Compared with “Aldehyde dehydrogenase family 3 member B1 (from UniProt Q80VQ0 1-465) (enzyme)”, “Apolipoprotein O-like (from UniProt Q78IK4 28-265)” is lower in Unique Peptide: 15 for the first, 9 for the second.

Compared with “B-cell receptor-associated protein 31 (from UniProt Q61335 2-245)”, “Calcium uniporter protein, mitochondrial (from UniProt Q3UMR5 50-350)” is higher in Unique Peptide: 7 for the first, 12 for the second.

“Calsequestrin-2 (from UniProt O09161 20-415)” and “Cluster of Guanine nucleotide-binding protein G(s) subunit alpha isoforms short” are the same in Unique Peptide: 9 for the first, 9 for the second.

Going from “Cluster of Myc box-dependent-interacting protein 1 (from UniProt O08539 2-588)” to “Coproporphyrinogen-III oxidase, mitochondrial (from UniProt P36552 99-443) (enzyme)”, the Unique Peptide rises from 16 to 19.

First: Cytochrome b-c1 complex subunit 1, mitochondrial (from UniProt Q9CZ13 35-480)
Second: Cytoplasmic dynein 1 heavy chain 1 (from UniProt Q9JHU4 2-4644)
The Unique Peptide of the first is lower: 13 for the first, 157 for the second.

Going from “Cytoskeleton-associated protein 5 (from UniProt A2AGT5 1-2032)” to “DnaJ homolog subfamily C member 16 (from UniProt Q80TN4 26-772)”, the Unique Peptide falls from 13 to 9.

Compared with Dysferlin (from UniProt Q9ESD7 1-2090), “Eukaryotic initiation factor 4A-II (from UniProt P10630 1-407)” is lower in Unique Peptide: 17 for the first, 9 for the second.

First: Inositol 1,4,5-trisphosphate receptor type 3 (from UniProt P70227 1-2670)
Second: Isovaleryl-CoA dehydrogenase, mitochondrial (from UniProt Q9JHI5 31-424) (enzyme)
The Unique Peptide of the first is lower: 11 for the first, 16 for the second.

Going from “Junctional sarcoplasmic reticulum protein 1 (from UniProt Q3MI48 1-332)” to “NADH dehydrogenase [ubiquinone] 1 alpha subcomplex subunit 10, mitochondrial (from UniProt Q99LC3 36-355) (enzyme)”, the Unique Peptide falls from 8 to 7.

First: NADH dehydrogenase [ubiquinone] flavoprotein 1, mitochondrial (from UniProt Q91YT0 21-464) (enzyme)
Second: NADH-ubiquinone oxidoreductase 75 kDa subunit, mitochondrial (from UniProt Q91VD9 24-727) (enzyme)
The Unique Peptide of the first is lower: 7 for the first, 9 for the second.

Going from “Nascent polypeptide-associated complex subunit alpha, muscle-specific form (from UniProt P70670 1-2187)” to “Signal recognition particle 68 kDa protein (from UniProt Q8BMA6 1-625)”, the Unique Peptide falls from 23 to 11.

First: Sorbin and SH3 domain-containing protein 2 (from UniProt Q3UTJ2 1-1180)
Second: Syntaxin-8 (from UniProt O88983 1-236)
The Unique Peptide of the first is higher: 6 for the first, 4 for the second.

T-complex protein 1 subunit alpha and “T-complex protein 1 subunit beta (from UniProt P80314 2-535)” are the same in Unique Peptide: 20 for the first, 20 for the second.

First: T-complex protein 1 subunit theta (from UniProt P42932 2-548)
Second: Trifunctional enzyme subunit alpha, mitochondrial (from UniProt Q8BMS1 37-763)
The Unique Peptide of the first is lower: 22 for the first, 33 for the second.

Going from “Trifunctional enzyme subunit beta, mitochondrial (from UniProt Q99JY0 35-475)” to “Tripartite motif-containing protein 72 (from UniProt Q1XH17 1-477)”, the Unique Peptide falls from 22 to 16.

Going from “Vacuolar protein sorting-associated protein 45 (from UniProt P97390 1-570)” to “Very long-chain specific acyl-CoA dehydrogenase, mitochondrial (from UniProt P50544 42-656) (enzyme)”, the Unique Peptide rises from 7 to 26.

Compared with “Voltage-dependent anion-selective channel protein 1 (from UniProt Q60932 1-296)”, B1 is lower in Unique Peptide: 10 for the first, 5 for the second.

Target: T2, Gapdh (mouse, UniProt P16858 1-333)
T2 construct: also called glyceraldehyde-3-phosphate dehydrogenase
T2 sequence (P16858 whole entry): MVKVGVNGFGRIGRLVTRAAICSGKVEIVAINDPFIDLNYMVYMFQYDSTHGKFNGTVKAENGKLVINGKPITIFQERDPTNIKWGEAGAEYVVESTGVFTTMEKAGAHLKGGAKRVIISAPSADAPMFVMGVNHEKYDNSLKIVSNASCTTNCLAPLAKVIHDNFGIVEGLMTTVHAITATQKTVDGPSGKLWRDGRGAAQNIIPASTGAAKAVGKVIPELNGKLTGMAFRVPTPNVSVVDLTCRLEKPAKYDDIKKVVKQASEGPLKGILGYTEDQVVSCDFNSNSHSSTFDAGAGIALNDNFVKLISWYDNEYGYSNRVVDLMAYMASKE
Experiment: Western blot of the FLAG-tagged Minion affinity purification

B2: no binding.

— US20190263899A1 (Novartis, published 2019)
